Here are results for one protein from publication doi:10.1101/302828 (bioRxiv, 2018).

The series concerns the molecule itself. As to the kind of experiment: SEC.

B1: recombinant murine chromogranin B (CHGB) (natural protein, mouse, UniProt P16014 21-677, looked up)
chain: APVDNRDHNEEMVTRCIIEVLSNALSKSSVPTITPECRQVLKKSGKEVKGEEKGENQNSKFEVRLLRDPADASGTRWASSREDAGAPVEDSQGQTKVGNEKWTEGGGHSREGVDDQESLRPSNQQASKEAKIYHSEERVGKEREKEEGKIYPMGEHREDAGEEKKHIEDSGEKPNTFSNKRSEASAKKKDESVARADAHSMELEEKTHSREQSSQESGEETRRQEKPQELTDQDQSQEESQEGEEGEEGEEGEEGEEDSASEVTKRRPRHHHGRSGSNKSSYEGHPLSEERRPSPKESKEADVATVRLGEKRSHHLAHYRASEEEPEYGEESRSYRGLQYRGRGSEEDRAPRPRSEESQEREYKRNHPDSELESTANRHGEETEEERSYEGANGRQHRGRGREPGAHSALDTREEKRLLDEGHYPVRESPIDTAKRYPQSKWQEQEKNYLNYGEEGDQGRWWQQEEQLGPEESREEVRFPDRQYEPYPITEKRKRLGALFNPYFDPLQWKNSDFEKRGNPDDSFLEDEGEDRNGVTLTEKNSFPEYNYDWWERRPFSEDVNWGYEKRSFARAPQLDLKRQYDGVAELDQLLHYRKKADEFPDFYDSEEQMGPHQEANDEKARADQRVLTAEEKKELENLAAMDLELQKIAEKFSQRG
B1: the “stoichiometry N” value amounted to 2.
